The target of assay [1] is mouse TMEM106B (mouse) (UniProt Q80X71). Briefly: flow cytometry, HEK293 cells transiently transfected with murine TMEM106B.
Assay [2] addresses cynomolgus (cyno) TMEM106B (cynomolgus). Description: flow cytometry, HEK293 cells transiently transfected with cyno TMEM106B. (Flow cytometry measures light scatter and fluorescence of single cells or particles in a stream.)
Assay [3] deals with human TMEM106B (human) (UniProt Q9NUM4). Briefly: flow cytometry, HEK293 cells transiently transfected with human TMEM106B.

B1: TM-90 (antibody, V domains shown)
VH: QVHLQQSGPELVKPGASVKLSCKASGYPFTSYDINWVKQRPGQGLEWIGWIYPRDGNAKYNEKFKGKATLTVDTSSSTAYMELHSLTSENSAVYFCARVSDYHGGYGMDYWGQGTSVTVSS
VL: DVLMTQTPLSLPVSLGDQASISCRSSQSFVHGNGNTYLEWYLQKPGQSPKLLIYKVSHRFSGVPDRFSGSGSGTDFTLKITRVEAEDLGVYYCFQNSHVPHTFGGGTKLEIK
Take B1: the fold-change in binding over parental HEK293 cells in assay [1] worked out at 1.97 fold.

B2: TM-72 (antibody, V domains shown)
VH: QVQLQQPGAELVKPGTSVKLSCKASGSTFTNYWMHWVMQRPGQGLEWIGNIDPSDSDTHYNQKFKDRAKLTVDKSSSTAYMQLSGLTSEDSAVYYCARSRGGYYDYGEAMDYWGQGTSVTVSS
VL: DIVMTQAAPSVPVTPGESVSISCRSSKSLLHTNGNTYLFWFIQRPGQSPHLLIYRKSNLASGVPDRFSGSGSGTAFTLRISRVEAEDVGVYYCMQHLEYPFTFGSGTKLEIK
Turning to B2, the fold-change in binding over parental HEK293 cells in assay [2] was 1.78 fold.

B3: TM-82 (antibody, V domains shown)
VH: QVQLQQSGAELVRPGTSVRVSCKASGYAFTNYLIEWIKQRPGQGLEWIGVINPGSGITDYSEKFKGKARLTADKSSSTAYMQLSSLTSDDSAVYFCTRSPFITTVVADYWGQGTTVTVSS
VL: DVVVTQTPLSLPVSFGDQVSISCRSSQSLANTYGNTYLSWYLHTPGQSPQLLIFGISNRFSGVPDRFSGSGSGTDFTLKISTIKPEDLGVYYCLQGTHPPRTFGGGTKLEMK
For B3, the fold-change in binding over parental HEK293 cells in assay [3] was found to be 1.99 fold.

B4: TM-79 (antibody, V domains shown)
VH: EVQLQQSGPELVKPGASVKMSCKASGYTFTNYVMHWLKQKPGQGLEWIAHITPHNDGTKYNEKFKGKATLTSDRSSSTAYMELNSLTSEDSAIYYCARSGQFGRGDYFHYWGQGTTVTVSS
VL: DIVLTQSPASLAVSLGQRATISCRASKSVSTSGSIYIHWYQQKPGQPPKLLIYLTSNLESGVPARFSGSGSGTDFTLNIHPVEEEDAATYYCQHSGELPWTFGGGARLEIK
For B4, the fold-change in binding over parental HEK293 cells in assay [1] was found to be 1.86 fold.

B5: TM-77 (antibody, V domains shown)
VH: QIQLQQSGAELVRPGASVKLSCKASGYTFTDYEMHWVKQTPVHGLEWIGVIDPETGGTAYNQMFKGKATLTADKSSSTAYMDLRSLTSEDSAVYYCVKYGIEGYWGQGTTLTVSS
VL: DVVMTQIPLTLSVTLGQPASISCKSSQSLFHSNGKTYLNWLLQRPGQSPKLLIYMVSKLESGVPDRFSGSGSGTDFTLKISRVEAEDLGVYYCLQVTHFPLTFGAGTKLELK
B5: the fold-change in binding over parental HEK293 cells in assay [1] was 1.86 fold.

(Values after patent publication US20240174746A1.)
